# Measurements as given in patent US20110034399A1, “Liquid and Freeze Dried Formulations” (IPSEN PHARMA S.A.S., priority 2008, published 2011).
# Test: Formulation stability of lyophilisate form (HPLC content and purity, pH) on storage
# Assay type: physicochemical
# Experimental: Stabilities measurements were performed by means of High Performance Liquid Chromatographic (HPLC) method. The HPLC system a HPLC Waters Alliance 2695 completed by detection system 2487 Dual λ Absorbance Detector, the column used was a C18, 250×4.6 mm. All details concerning instrumental conditions are gathered in table 6. Elution conditions are gathered in table 7. Two pharmaceutical forms were studied in parallel for stability assays over six months at +5° C. and +25° C./60% RH (relative humidity) and +40° C./75% RH. Measurements were carried out in parallel with (in either wfi, or 5% dextrose as solvent) and a lyophilisate (drug substance on its own) or as second variant of formulations with an additional bulking agents such as mannitol, glycine and trehalose) in WFI. […] C (% initial) represents the content expressed in percentage at the moment T with regard to the content at the moment Tzero. […] In table 7 are gathered the elution program, the ratio of each eluant (mobile phase) used for measurement of formulation stabilities. […] Thereafter 20 ml of acetic acid 0.1 N were added under shaking by means of a vortex and if required additionally dissolved in ultrasonic bath in order to obtain a total dissolution. Weight of brut BI[…] 760 was calculated by means of the following relation: […]
structure (smiles),measurement,setting,value
"CCCN1CC(CSCC(=O)N[C@H](CCCCNC(=O)CSC[C@@H]2C[C@@H]3c4cccc5[nH]cc(c45)C[C@H]3N(CCC)C2)C(=O)N[C@H]2CSSC[C@@H](C(=O)N[C@H](C(N)=O)[C@@H](C)O)NC(=O)[C@H](CC)NC(=O)[C@H](CCCCN)NC(=O)[C@@H](Cc3c[nH]c4ccccc34)NC(=O)[C@H](Cc3ccc(O)cc3)NC2=O)C[C@@H]2c3cccc4[nH]cc(c34)C[C@H]21 (stereo partly drawn) [BIM23A760, Dop2-DLys(Dop2)-c(Cys-Tyr-DTrp-Lys-Abu-Cys)-Thr-NH2]",C (% initial),"+5° C., T3 Months",103.6% initial
same,P (% a/a),"+5° C., T3 Months",96.10% a/a
same,pH,"+5° C., T3 Months",6.64
same,C (% initial),"+5° C., T6 Months",73.0% initial
same,P (% a/a),"+5° C., T6 Months",96.80% a/a
same,pH,"+5° C., T6 Months",5.81
same,C (% initial),"+25° C./60% RH, T0",100% initial
same,P (% a/a),"+25° C./60% RH, T0",95.90% a/a
same,pH,"+25° C./60% RH, T0",6.8
same,C (% initial),"+25° C./60% RH, T3 Months",98.8% initial
same,P (% a/a),"+25° C./60% RH, T3 Months",93.70% a/a
same,pH,"+25° C./60% RH, T6 Months",6.63
same,C (% initial),"+40° C./75% RH, T1 Month",52.0% initial
same,P (% a/a),"+40° C./75% RH, T1 Month",95.9% a/a
same,C (% initial),"+40° C./75% RH, T3 Months",29.0% initial
same,P (% a/a),"+40° C./75% RH, T3 Months",95.5% a/a
same,pH,"+40° C./75% RH, T3 Months",5.60
same,pH,"+40° C./75% RH, T6 Months",5.62
